Measured values: US7211395 (dated 2007)
Bridges are numbered along the chain shown (N, C = ends). [ ]: non-standard residue; d: D form. Ahx = NCCCCCC(=O)O

B1: DX-997 (peptide)
chain: Ac-GDFSLCWIVDEDGTKWCLPDPGGGK-NH2
modifications: disulfide 6-17 (inferred); also: fluorescein label, attachment site not given here
B2: DX-321 (GD...GGGK form) (peptide)
chain: Ac-GDRNMCKFSWIRSPAFCARADPGGGK-NH2
modifications: disulfide 6-17 (inferred); also: fluorescein label, attachment site not given here

These binders were tested against T1, human serum albumin (HSA) (human, UniProt P02768) (assay: FP, pH 7.4, 0.14 M NaCl, 0.1% caprylate).

Binder	Kd
Ac-AEGTGSHVGCNNALCMQYAPE[Ahx]K(fluorescein)-NH2 (disulfide 10-15 (inferred)) [DX-296]	> 200 µM
Ac-AEGTGSWKVCDHFFCLSPAPE[Ahx]K(fluorescein)-NH2 (disulfide 10-15 (inferred)) [DX-297]	> 200 µM
Ac-AEGTGDDWDCVTRWANRDQQCWALDPE[Ahx]K(fluorescein)-NH2 (disulfide 10-21 (inferred)) [DX-315]	> 100 µM

Each binder was assayed against T1, human serum albumin (HSA) (assay: FP).

Binder	Kd
Ac-AEGTGDFWFCDRIAWYPQHLCGGGK-NH2 (disulfide 10-21 (inferred)) [DX-236 truncation SEQ 42]	8.9 µM
Ac-FWFCDRIAWYPQHLCEFLDPEGGGK-NH2 (disulfide 4-15 (inferred)) [DX-236 truncation SEQ 39]	8.9 µM

Each binder was assayed against T1, human serum albumin (HSA) (assay: FP, pH 6.2, 0.14 M NaCl).

Binder	Kd
Ac-AEGTGDDWDCVTRWANRDQQCWGPDPE[Ahx]K(fluorescein)-NH2 (disulfide 10-21 (inferred)) [DX-313]	80 µM
Ac-AEGTGDDWQCVKDWANRRRGCMADDPE[Ahx]K(fluorescein)-NH2 (disulfide 10-21 (inferred)) [DX-319]	> 200 µM
Ac-AEGTGSVAWCTIFLCLDVAPEGGGK(fluorescein)-NH2 (disulfide 10-15 (inferred)) [DX-232]	0.5 µM
Ac-AEGTGSHVGCNNALCMQYAPE[Ahx]K(fluorescein)-NH2 (disulfide 10-15 (inferred)) [DX-296]	> 100 µM
Ac-AEGTGSWKVCDHFFCLSPAPE[Ahx]K(fluorescein)-NH2 (disulfide 10-15 (inferred)) [DX-297]	> 200 µM
Ac-AEGTGSNHGCWHFSCIWDAPE[Ahx]K(fluorescein)-NH2 (disulfide 10-15 (inferred)) [DX-298]	> 200 µM
Ac-AEGTGDDWDCVTRWANRDQQCWALDPE[Ahx]K(fluorescein)-NH2 (disulfide 10-21 (inferred)) [DX-315]	> 200 µM
Ac-AEGTGSFKICDQWFCLMPAPE[Ahx]K(fluorescein)-NH2 (disulfide 10-15 (inferred)) [DX-295]	> 100 µM
Ac-AEGTGDDWDCVTDWANRHQHCWALDPE[Ahx]K(fluorescein)-NH2 (disulfide 10-21 (inferred)) [DX-317]	> 200 µM

What follows are binders tested against T1, human serum albumin (HSA) (assay: FP, PBS).

Binder	binding result
Ac-GDRWFCDSAYWQEIPACARDDPGGGK-NH2 (disulfide 6-17 (inferred); also: fluorescein label, position not given here) [DX-1085]	no binding
Ac-GDSDFCDTPYWRDLWQCNSPDPGGGK-NH2 (disulfide 6-17 (inferred); also: fluorescein label, position not given here) [DX-1087]	no binding
Ac-GDPRSCVEKYYWDVLICGFFDPGGGK-NH2 (disulfide 6-17 (inferred); also: fluorescein label, position not given here) [DX-1169]	no binding

What follows are binders tested against T1, human serum albumin (HSA) (assay: FP, pH 7.4, 0.14 M NaCl).

Binder	Kd
Ac-AEGTGDDWDCVTRWANRDQQCWGPDPE[Ahx]K(fluorescein)-NH2 (disulfide 10-21 (inferred)) [DX-313]	> 200 µM
Ac-AEGTGDDWQCVKDWANRRRGCMADDPE[Ahx]K(fluorescein)-NH2 (disulfide 10-21 (inferred)) [DX-319]	> 200 µM
Ac-AEGTGSWKVCDHFFCLSPAPE[Ahx]K(fluorescein)-NH2 (disulfide 10-15 (inferred)) [DX-297]	> 200 µM

Each binder was assayed against T1, human serum albumin (HSA) (assay: FP, pH 9.1, 0.14 M NaCl).

Binder	Kd
Ac-AEGTGDDWDCVTRWANRDQQCWGPDPE[Ahx]K(fluorescein)-NH2 (disulfide 10-21 (inferred)) [DX-313]	90 µM
Ac-AEGTGSNHGCWHFSCIWDAPE[Ahx]K(fluorescein)-NH2 (disulfide 10-15 (inferred)) [DX-298]	> 200 µM

Target: T1, human serum albumin (HSA)
Experiment: FP, PBS
Remark: another data set of the same source

Binder	Kd
Ac-GDSFCVTYIGTWETVCKRSDPGGGK-NH2 (disulfide 5-16 (inferred); also: fluorescein label, position not given here) [DX-1089]	> 10 µM
Ac-AGLEYCFYQWWGCPHAGTGGGK-NH2 (disulfide 6-13 (inferred); also: fluorescein label, position not given here) [DX-1177]	153 µM
B1	> 10 µM
Ac-AGYQFCTWDPIFCGWHGTGGGK-NH2 (disulfide 6-13 (inferred); also: fluorescein label, position not given here) [DX-1179]	185 µM
Ac-AGKWYCAWDPLVCEIFGTGGGK-NH2 (disulfide 6-13 (inferred); also: fluorescein label, position not given here) [DX-1173]	> 10 µM
Ac-AGWTTCHIYDWFCSSSGTGGGK-NH2 (disulfide 6-13 (inferred); also: fluorescein label, position not given here) [DX-1175]	30 µM
Ac-GSRSFCMDWPNHRDCDYSAPGGGK-NH2 (disulfide 6-15 (inferred); also: fluorescein label, position not given here) [DX-1171]	165 µM
Ac-GDLRDCQTTWPFTMMQCPNNDPGGGK-NH2 (disulfide 6-17 (inferred); also: fluorescein label, position not given here) [DX-1002]	4 µM
Ac-GDDSMCITWPFKRPWPCANDPGGGK-NH2 (disulfide 6-17 (inferred); also: fluorescein label, position not given here) [DX-1163]	42 µM
B2	> 10 µM
Ac-GDSPYCKIALFQHFEVCAADDPGGGK-NH2 (disulfide 6-17 (inferred); also: fluorescein label, position not given here) [DX-1167]	> 10 µM
Ac-GDNDGCTDTNWSWMFDCPPLDPGGGK-NH2 (disulfide 6-17 (inferred); also: fluorescein label, position not given here) [DX-1165]	> 10 µM
Ac-GSLWDCWLYDCEGNAPGGGK-NH2 (disulfide 6-11 (inferred); also: fluorescein label, position not given here) [DX-1093]	> 10 µM
Ac-GDLRSCFTYYPFTTFSCSPADPGGGK-NH2 (disulfide 6-17 (inferred); also: fluorescein label, position not given here) [DX-1091]	> 10 µM
